Assay results: article PMC4319893 (PLoS ONE, 2015)

Molecular target: T1, SAP-97 PDZ1-2-3 (human, UniProt Q12959 220-554)
T1 construct: human SAP-97, residues 220-554; Synthetic DNA in a modified pRSET vector; source: E. coli BL21(DE3)pLysS, purified (His-Trap IMAC, MonoQ ion exchange)
Test: fluorescence polarisation; competition against the monomeric CRIPT probe; 50 mM TRIS, 100 mM NaCl, 1 mM EDTA, 1 mM DTT; Ki calculated according to Nikolovska-Coleska et al.
Settings: both partners purified

T1 sequence (Q12959 220-554): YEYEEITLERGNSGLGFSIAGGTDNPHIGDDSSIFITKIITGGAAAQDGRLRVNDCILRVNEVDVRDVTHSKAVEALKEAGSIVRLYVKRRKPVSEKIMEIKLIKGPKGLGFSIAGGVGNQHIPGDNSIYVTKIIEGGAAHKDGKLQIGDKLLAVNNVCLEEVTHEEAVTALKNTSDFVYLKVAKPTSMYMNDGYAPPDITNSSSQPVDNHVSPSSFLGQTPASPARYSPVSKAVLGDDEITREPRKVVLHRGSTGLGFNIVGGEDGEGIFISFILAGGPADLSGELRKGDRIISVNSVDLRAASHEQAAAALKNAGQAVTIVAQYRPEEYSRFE

Ki: 1 µM
B1: CRIPT-06 (1) (peptide)
peptide: YKQTSV
notes: C-terminal hexapeptide of CRIPT; also called CRIPT hexapeptide; YKQTSV; source: synthetic peptide
